Each block holds one molecule with its values, some of them ahead of it.
Legend:
Type in all cases: binding
[1] = test system: CA-14-CBD complex; assay: BLI of immobilized dimerization binders with CA-14 pre-equilibrated with CBD; settings: for Koff / Kon: CBD +
Excerpt: (§1) With the purified DB nanobodies in hand, we first sought to determine their binding affinities to the CA-14-CBD. CBD might directly bind to selected dimerization binders, which can affect the affinity measurement. To rule out this possibility, the four nanobodies were biotinylated (FIG. 7c) and immobilized on streptavidin biosensors, and the interaction with CBD was detected by BLI. Only minimal binding between CBD and the dimerization binders was detected (data not shown). Moreover, the binding-dissociation dynamics of the CA-14-CBD complex can also affect the measurement of dimerization binder affinities. To address this, the affinity was measured by a BLI assay in which the biosensor-immobilized dimerization binders were interacted with CA-14 pre-equilibrated with varied concentrations of CBD (FIG. 9a). The concentrations of the CA-14-CBD complex in equilibrium were calculated based on input CA-14 and CBD concentrations. The CA-14-CBD complex concentration was approximated to be constant because only a minimal fraction of the complex bound to the biosensor tips during the BLI assay. It was confirmed that CA-14 only interacts with the dimerization binders in the presence of CBD (FIG. 3a). The KDs of the four dimerization binders varied from 56.4 nM to 19 μM (Table 5).
The nanobody binding kinetics was analyzed using an Octet™ RED96 system (ForteBio) and Streptavidin (SA) or Super Streptavidin (SSA) biosensors. For the anchor-binder analysis, 200 nM biotinylated anchor binders were immobilized on SSA biosensors with a binding assay buffer (1×PBS, pH 7.4, 0.05% Tween 20, 0.2% BSA, 3% methanol; Note: because CBD and THC were dissolved in methanol to make stock solutions, 3% methanol was added to the buffer to fairly compare samples and controls). Serial dilutions of CBD and THC were used for the anchor binder assays. Dissociation constants (KDs) of anchor binder-ligand interactions were calculated based on a steady-state analysis using Octet™ RED96 data analysis software. For the dimerization-binder analysis, 200 nM biotinylated dimerization binders were immobilized on SA biosensors with the binding assay buffer and then assayed with 1 μM CA-14 pre-equilibrated with serial dilutions of CBD or THC. KDs, kons, and koffs of the interactions between anchor binder-ligand complexes and dimerization binders were calculated based on a heterogeneous ligand model global fit (2:1) of the data and simulated binding equilibria of the anchor binder and CBD described in Supplementary Notes.
In order to determine the binding kinetics of our nanobody CID system we performed a series of bio layer interferometry (BLI) experiments. In all experiments we used an Octet RED96 system (ForteBio) and Streptavidin Biosensors (ForteBio). 200 nM biotinylated protein (FIGS. 7b & 4C) were immobilized on biosensors (Super Streptavidin, SSA used for anchor binder; Streptavidin, SA used for dimerization binder) with a binding assay buffer (1×PBS, pH 7.4, 0.05% Tween 20, 0.2% BSA, 3% methanol; Note: because CBD and THC were dissolved in methanol to make stock solutions, 3% methanol was added to the buffer to fairly compare samples and controls). Ligand loading was followed by a quenching step using free biotin. All experiments were performed using four measurements to control for sensor drift and unspecific binding: • No ligand, no analyte • With ligand, no analyte • No ligand, with analyte • With ligand, with analyte
Next, we wanted to determine the binding affinity between CA-14 bound to CBD (referred to as CA-14*) and a panel of DBs. We observed no detectable binding between CA-14 and any of the DBs (FIG. 3a). We also rely on the observation that the DBs have weak binding to CBD, and therefore we can assume that only CA-14* binds the DB loaded to the sensor. We control the CA-14* concentration by using a fixed concentration of 1 μM CA-14 pre-incubated to equilibrium with six different concentrations of CBD. […]

[2] = Bio-Layer Interferometry (BLI) of immobilized anchor binders with unlabeled CBD or THC; settings: unlabeled CBD, anchor binder immobilized on Super Streptavidin biosensors, steady-state analysis, read-out: dissociation constants (KDs) of anchor binder to CBD
Excerpt: To confirm that the nanobody binding only requires CBD, and not the linker between CBD and biotin or the streptavidin, we measured the binding affinity using unlabeled CBD. Anchor-binder hits were expressed in E. coli periplasm and purified by nickel-affinity and size-exclusion chromatography (SEC). Purified nanobodies were enzymatically biotinylated (FIG. 7a-b) and immobilized on streptavidin biosensors to quantify binding affinities to CBD or THC by Bio-Layer Interferometry (BLI) (FIG. 8a).
The nanobody binding kinetics was analyzed using an Octet™ RED96 system (ForteBio) and Streptavidin (SA) or Super Streptavidin (SSA) biosensors. […] Dissociation constants (KDs) of anchor binder-ligand interactions were calculated based on a steady-state analysis using Octet™ RED96 data analysis software. […] KDs, kons, and koffs of the interactions between anchor binder-ligand complexes and dimerization binders were calculated based on a heterogeneous ligand model global fit (2:1) of the data and simulated binding equilibria of the anchor binder and CBD described in Supplementary Notes. […]
We first determined the binding affinity between the CBD anchor 14 (CA-14) and CBD via steady-state analysis (FIG. 8). […] We observed minimal binding between DBs and CBD, but the KDs are too weak to be determined (data not shown).

[3] = BLI of immobilized dimerization binders with CBD alone
Excerpt: as §1, with “It was confirmed that CA-14 only interacts with the dimerization binders in the presence of CBD (FIG. 3a). The KDs of the four dimerization binders varied from 56.4 nM to 19 μM (Table 5).” left out
We first determined the binding affinity between the CBD anchor 14 (CA-14) and CBD via steady-state analysis (FIG. 8). […] We observed minimal binding between DBs and CBD, but the KDs are too weak to be determined (data not shown). […]

B1: DB-11: dimerization binder nanobody; CDRs TTSDNDT, WNGGRDE, YQDNRSWQE (SEQ ID NO: 40-42) (protein)
VHH: EVQLQASGGGFVQPGGSLRLSCAASGTTSDNDTMGWFRQAPGKEREFVSAISWNGGRDEYYADSVKGRFTISRDNSKNTVYLQMNSLRAEDTATYYCAYQDNRSWQEYWGQGTQVTVSS
modifications: left off: small tags and cut ends
- Koff [1]: 840 10^−4s^−1
- Kon [1]: 0.61 10^5 M^−1s^−1

B2: DB-18: dimerization binder nanobody; CDRs GYSRADD, FGETDSF, YHNYTNMFE (SEQ ID NO: 61-63) (protein)
VHH: EVQLQASGGGFVQPGGSLRLSCAASGGYSRADDMGWFRQAPGKEREFVSAISFGETDSFYYADSVKGRFTISRDNSKNTVYLQMNSLRAEDTATYYCAYHNYTNMFEYWGQGTQVTVSS
modifications: left off: small tags and cut ends
- Koff [1]: 227 10^−4s^−1
- Kon [1]: 0.41 10^5 M^−1s^−1

B3: DB-6: dimerization binder nanobody; CDRs RFSWGEE, WAATPWQ, DEWHIGHVS (SEQ ID NO: 25-27) (protein)
VHH: EVQLQASGGGFVQPGGSLRLSCAASGRFSWGEEMGWFRQAPGKEREFVSAISWAATPWQYYADSVKGRFTISRDNSKNTVYLQMNSLRAEDTATYYCADEWHIGHVSYWGQGTQVTVSS
modifications: left off: small tags and cut ends
- Koff [1]: 1,820 10^−4s^−1
- Kon [1]: 0.096 10^5 M^−1s^−1

- Kd [2]: 6 µM
B4: CA-14: anchor binder nanobody; CDR1 SRSRQYD, CDR2 SNQDQPP, CDR3 FKQHHANGA (SEQ ID NO: 1-3) (protein)
VHH: EVQLQASGGGFVQPGGSLRLSCAASGSTSRQYDMGWFRQAPGKEREFVSAISSNQDQPPYYADSVKGRFTISRDNSKNTVYLQMNSLRAEDTATYYCAFKQHHANGAYWGQGTQVTVSS
modifications: left off: small tags and cut ends

- Kd ([1]; BLI, CA-14* = CA-14 bound to CBD, read-out: CA-14*'s affinity to DB-21 (KBC/α)): 0.056 µM
- binding between CBD and the dimerization binders ([3]; BLI, CBD alone, data not shown): very weakly
- Kd ([3]; worked out from KBC/α 56 nM with α=1,000 as a reasonable guess, read-out: KBC (DB-21's affinity to CBD)): 56 µM
B5: DB-21: dimerization binder nanobody; CDRs TTYGQTN, GLQGRDL, FHDFLRMWE (SEQ ID NO: 70-72) (protein)
VHH: EVQLQASGGGFVQPGGSLRLSCAASGTTYGQTNMGWFRQAPGKEREFVSAISGLQGRDLYYADSVKGRFTISRDNSKNTVYLQMNSLRAEDTATYYCAFHDFLRMWEYWGQGTQVTVSS
modifications: left off: small tags and cut ends
- dissociation rate koff ([1]; CA-14 with CBD): 0.000617 s⁻¹
- Koff [1]: 6.17 10^−4s^−1
- Kon [1]: 0.11 10^5 M^−1s^−1

Source: patent US12415869B2, “Chemically induced protein dimerization systems” (UNIVERSITY OF WASHINGTON, priority 2019, dated 2025)
